Source: patent US20070042353

Tests used:
[1] = target: HCV NS5B536 (Hepatitis C virus (BK strain, genotype 1b)) (UniProt P26663); details: [3H]UTP incorporation, 5 mM MgCl2, 50 mM NaCl, pH 7.5, 25 C, 90 min
[2] = target: HCV NS5B591 (full length) (Hepatitis C virus (BK strain, genotype 1b)) (UniProt P26663); details: reference enzyme; [3H]UTP incorporation, 5 mM MgCl2, 50 mM NaCl, pH 7.5, 25 C, 90 min
[3] = target: HCV NS5B552 (Hepatitis C virus (BK strain, genotype 1b)) (UniProt P26663); details: [3H]UTP incorporation, 5 mM MgCl2, 50 mM NaCl, pH 7.5, 25 C, 90 min
[4] = target: HCV NS5B570 (Hepatitis C virus (BK strain, genotype 1b)) (UniProt P26663); details: [3H]UTP incorporation, 5 mM MgCl2, 50 mM NaCl, pH 7.5, 25 C, 90 min
[5] = target: HCV NS5B531 (Hepatitis C virus (BK strain, genotype 1b)) (UniProt P26663); details: [3H]UTP incorporation, 5 mM MgCl2, 50 mM NaCl, pH 7.5, 25 C, 90 min
[6] = target: HCV NS5B544 (Hepatitis C virus (BK strain, genotype 1b)) (UniProt P26663); details: [3H]UTP incorporation, 5 mM MgCl2, 50 mM NaCl, pH 7.5, 25 C, 90 min

## HCV NS5B 3' end + 3'UTR (polyU and 3'X) template RNA, about 450 nt
[1]
  activity: 2110 % of NS5B591
[2]
  activity: 100 % of NS5B591
[3]
  activity: 147 % of NS5B591
[4]
  activity: 3 % of NS5B591
[5]
  activity: 2150 % of NS5B591
[6]
  activity: 2010 % of NS5B591
